Data as given in patent publication US20230374142A1 (MONASH UNIVERSITY, published 2023).

Biological target: T1, full-length human CLEC9A on transfected 293F cells (human, UniProt Q6UXN8 1-241)
T1 construct: also called cell surface CLEC9A
Assay: flow cytometry on 293F cells transfected with full-length human CLEC9A

T1 sequence (Q6UXN8 whole entry): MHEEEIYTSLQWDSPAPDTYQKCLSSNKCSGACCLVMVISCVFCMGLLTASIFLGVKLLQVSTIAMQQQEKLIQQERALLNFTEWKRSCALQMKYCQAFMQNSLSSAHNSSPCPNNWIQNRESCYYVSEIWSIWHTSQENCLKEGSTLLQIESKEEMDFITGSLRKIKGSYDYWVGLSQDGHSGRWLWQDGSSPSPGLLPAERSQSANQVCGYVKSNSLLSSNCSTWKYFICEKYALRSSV

Row | Binder | binding result
1 | humanised anti-CLEC9A Ab (Ab1) (antibody, human IgG4 S228P, kappa, V domains shown, Human IgG4 / kappa; also called Humanised CLEC9A Ab; humanised anti-CLEC9A antibody) VH: EVQLLESGGGLVQPGGSLRLSCAASGFTFNNYWLAWVRQAPGKGLEWVASITTAAGGTYYPDSVKGRFTISRDNSKNTLYLQMNSLRAEDTAVYYCTRVGRDIWDYWGQGTLVTVSS VL: DIVMTQTPLSLSVTPGQPASISCKSSQSLLHSDGNTYLHWYLQKPGQPPQLLIWRISNRFSGVPDRFSGSGSGTDFTLKISRVEAEDVGVYYCLQSSHFPPTFGGGTKVEIKR | binds
2 | human/rat chimaeric anti-CLEC9A Ab (clone 4C6) (antibody, V domains shown, also called human chimeric anti-Clec9A Ab; original human chimaeric anti-CLEC9A Ab) VH: EVQLVESGGGLVQPGGSLKLSCVASGFTFNNYWLAWIRQAPRKGLEWVASITTAAGGTYYPDSVKGRFTISRDNAKSTLYLQMNSLTSEDTATYYCTRVGRDIWDYWGQGVVVTVSS VL: EILMTQTPVSLPVSLGGQVSFSCRSSQSLLHSDGNTYLHWYLQKPGQSPQLLIWRISNRFSGVPDRFSGSGSGTDFTLKISRVEPEDLGVYYCLQSSHFPPTFGGGTNLEIKR | binds
